Patent US20080219947A1

Key:
[1] = target: β2m^b.L^d single chain dimer (murine) (UniProt P01887); assay: flow cytometry on DLD-1 transfectants, 64-3-7 against 30-5-7 staining
[2] = target: QL9.β2m^b.L^d single chain trimer (murine) (UniProt P01887); assay: as above
[3] = target: p29.β2m^b.L^d single chain trimer (murine) (UniProt P01887); assay: as above
[4] = target: MCMV.β2m^b.L^d single chain trimer (murine) (UniProt P01887); assay: as above
[5] = target: epitope-tagged K^b (K^bR48Q.R50P), unattached (murine) (UniProt P01901); assay: flow cytometry on LM1.8 transfectants
Chain of UniProt P01901 (P01901 22-305, stated change not applied): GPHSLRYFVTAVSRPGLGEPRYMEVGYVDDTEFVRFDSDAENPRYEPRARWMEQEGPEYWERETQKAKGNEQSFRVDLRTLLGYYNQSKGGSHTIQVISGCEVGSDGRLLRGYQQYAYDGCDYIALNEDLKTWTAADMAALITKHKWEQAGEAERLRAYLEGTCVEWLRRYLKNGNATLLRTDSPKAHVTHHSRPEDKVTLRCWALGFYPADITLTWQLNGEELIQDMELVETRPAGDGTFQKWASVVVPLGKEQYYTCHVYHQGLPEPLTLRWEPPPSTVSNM

[6] = target: β2-microglobulin(L20).etK^b single chain dimer (murine) (UniProt P01887); assay: flow cytometry on LM1.8 transfectants

## mAb 64-3-7 (antibody)
[1]
  percent of surface molecules detected in an open conformation: 39%
[2]
  percent of surface molecules detected in an open conformation: 22%
[3]
  percent of surface molecules detected in an open conformation: 8%
[4]
  percent of surface molecules detected in an open conformation: 22%
[5]
  open conformers as a fraction of the sum of B8-24-3 and 64-3-7 fluorescence intensity: > 10%
[6]
  open conformers as a fraction of the sum of B8-24-3 and 64-3-7 fluorescence intensity: > 10%
